In patent US20200339636A1 (CHILDREN S MEDICAL CENTER, published 2020):

B1: TcdB fragment 1688-1835 (other)
chain: VNKVVISPNIYTDEINITPVYETNNTYPEVIVLDANYINEKINVNINDLSIRYVWSNDGNDFILMSTSEENKVSQVKIRFVNVFKDKTLANKLSFNFSDKQDVPVSEIILSFTPSYYEDGLIGYDLGLVSLYNEKFYINNFGMMVSGL
B2: TcdB fragment 1510-1804 (other)
chain: SNNLKDVKVITKDNVNILTGYYLKDDIKISLSLTLQDEKTIKLNSVHLDESGVAEILKFMNRKGNTNTSDSLMSFLESMNIKSIFVNFLQSNIKFILDANFIISGTTSIGQFEFICDENDNIQPYFIKFNTLETNYTLYVGNRQNMIVEPNYDLDDSGDISSTVINFSQKYLYGIDSCVNKVVISPNIYTDEINITPVYETNNTYPEVIVLDANYINEKINVNINDLSIRYVWSNDGNDFILMSTSEENKVSQVKIRFVNVFKDKTLANKLSFNFSDKQDVPVSEIILSFTPSYY
B3: sTcdB (TcdB residues 1285-1804), wild type, with C-terminal HA tag (other)
chain: TNIRINLDSNTRSFIVPIITTEYIREKLSYSFYGSGGTYALSLSQYNMGINIELSESDVWIIDVDNVVRDVTIESDKIKKGDLIEGILSTLSIEENKIILNSHEINFSGEVNGSNGFVSLTFSILEGINAIIEVDLLSKSYKLLISGELKILMLNSNHIQQKIDYIGFNSELQKNIPYSFVDSEGKENGFINGSTKEGLFVSELPDVVLISKVYMDDSKPSFGYYSNNLKDVKVITKDNVNILTGYYLKDDIKISLSLTLQDEKTIKLNSVHLDESGVAEILKFMNRKGNTNTSDSLMSFLESMNIKSIFVNFLQSNIKFILDANFIISGTTSIGQFEFICDENDNIQPYFIKFNTLETNYTLYVGNRQNMIVEPNYDLDDSGDISSTVINFSQKYLYGIDSCVNKVVISPNIYTDEINITPVYETNNTYPEVIVLDANYINEKINVNINDLSIRYVWSNDGNDFILMSTSEENKVSQVKIRFVNVFKDKTLANKLSFNFSDKQDVPVSEIILSFTPSYY
B4: TcdB fragment 1430-1804 (other)
chain: SGELKILMLNSNHIQQKIDYIGFNSELQKNIPYSFVDSEGKENGFINGSTKEGLFVSELPDVVLISKVYMDDSKPSFGYYSNNLKDVKVITKDNVNILTGYYLKDDIKISLSLTLQDEKTIKLNSVHLDESGVAEILKFMNRKGNTNTSDSLMSFLESMNIKSIFVNFLQSNIKFILDANFIISGTTSIGQFEFICDENDNIQPYFIKFNTLETNYTLYVGNRQNMIVEPNYDLDDSGDISSTVINFSQKYLYGIDSCVNKVVISPNIYTDEINITPVYETNNTYPEVIVLDANYINEKINVNINDLSIRYVWSNDGNDFILMSTSEENKVSQVKIRFVNVFKDKTLANKLSFNFSDKQDVPVSEIILSFTPSYY
B5: TcdB fragment 1454-1804 (other)
chain: SELQKNIPYSFVDSEGKENGFINGSTKEGLFVSELPDVVLISKVYMDDSKPSFGYYSNNLKDVKVITKDNVNILTGYYLKDDIKISLSLTLQDEKTIKLNSVHLDESGVAEILKFMNRKGNTNTSDSLMSFLESMNIKSIFVNFLQSNIKFILDANFIISGTTSIGQFEFICDENDNIQPYFIKFNTLETNYTLYVGNRQNMIVEPNYDLDDSGDISSTVINFSQKYLYGIDSCVNKVVISPNIYTDEINITPVYETNNTYPEVIVLDANYINEKINVNINDLSIRYVWSNDGNDFILMSTSEENKVSQVKIRFVNVFKDKTLANKLSFNFSDKQDVPVSEIILSFTPSYY
B6: FZD5^CRD-Fc (recombinant human, Sino Biologics) (Fc fusion, UniProt Q13467 27-167, looked up)
chain: ASKAPVCQEITVPMCRGIGYNLTHMPNQFNHDTQDEAGLEVHQFWPLVEIQCSPDLRFFLCSMYTPICLPDYHKPLPPCRSVCERAKAGCSPLMRQYGFAWPERMSCDRLPVLGRDAEVLCMDYNRSEATTAPPRPFPAKP
notes: domain: CRD; also called CRD5; CRD5-Fc; not shown: Fc tag of the bought protein
B7: TcdB fragment 1071-1512 (other)
chain: LTTATTAIITSSLGIASGFSILLVPLAGISAGIPSLVNNELVLRDKATKVVDYFKHVSLVETEGVFTLLDDKIMMPQDDLVISEIDFNNNSIVLGKCEIWRMEGGSGHTVTDDIDHFFSAPSITYREPHLSIYDVLEVQKEELDLSKDLMVLPNAPNRVFAWETGWTPGLRSLENDGTKLLDRIRDNYEGEFYWRYFAFIADALITTLKPRYEDTNIRINLDSNTRSFIVPIITTEYIREKLSYSFYGSGGTYALSLSQYNMGINIELSESDVWIIDVDNVVRDVTIESDKIKKGDLIEGILSTLSIEENKIILNSHEINFSGEVNGSNGFVSLTFSILEGINAIIEVDLLSKSYKLLISGELKILMLNSNHIQQKIDYIGFNSELQKNIPYSFVDSEGKENGFINGSTKEGLFVSELPDVVLISKVYMDDSKPSFGYYSNN
B8: FZD4^CRD-Fc (recombinant human, Sino Biologics) (Fc fusion)
chain: FGDEEERRCDPIRISMCQNLGYNVTKMPNLVGHELQTDAELQLTTFTPLIQYGCSSQLQFFLCSVYVPMCTEKINIPIGPCGGMCLSVKRRCEPVLKEFGFAWPESLNCSKFPPQNDHNHMCMEGPGDEEVPLPHKTPIQPGEE
notes: domain: CRD
B9: FZD8^CRD-Fc (recombinant human, R&D Systems) (Fc fusion)
chain: ASAKELACQEITVPLCKGIGYNYTYMPNQFNHDTQDEAGLEVHQFWPLVEIQCSPDLKFFLCSMYTPICLEDYKKPLPPCRSVCERAKAGCAPLMRQYGFAWPDRMRCDRLPEQGNPDTLCMDYNRTDLTT
notes: domain: CRD
B10: Wnt3A (recombinant human, StemRD) (ligand)
chain: SYPIWWSLAVGPQYSSLGSQPILCASIPGLVPKQLRFCRNYVEIMPSVAEGIKIGIQECQHQFRGRRWNCTTVHDSLAIFGPVLDKATRESAFVHAIASAGVAFAVTRSCAEGTAAICGCSSRHQGSPGKGWKWGGCSEDIEFGGMVSREFADARENRPDARSAMNRHNNEAGRQAIASHMHLKCKCHGLSGSCEVKTCWWSQPDFRAIGDFLKDKYDSASEMVVEKHRESRGWVETLRPRYTYFKVPTERDLVYYEASPNFCEPNPETGSFGTRDRTCNVSSHGIDGCDLLCCGRGHNARAERRREKCRCVFHWCCYVSCQECTRVYDVHTCK
B11: TcdB fragment 1510-1688 (other)
chain: SNNLKDVKVITKDNVNILTGYYLKDDIKISLSLTLQDEKTIKLNSVHLDESGVAEILKFMNRKGNTNTSDSLMSFLESMNIKSIFVNFLQSNIKFILDANFIISGTTSIGQFEFICDENDNIQPYFIKFNTLETNYTLYVGNRQNMIVEPNYDLDDSGDISSTVINFSQKYLYGIDSCV

Experiments:
[1] = target: T1, His-tagged CRD2 (CRD of human Frizzled 2, residues 24-156) (human, UniProt Q14332 24-156); assay: pull down by His-CRD2
T1 construct: range 24-156

[2] = target: T2, FZD2^CRD-Fc (recombinant human, R&D Systems) (human, UniProt Q14332 24-162); assay: BLI, FZD2 CRD-Fc on anti-hIgG-Fc biosensor
T2 construct: domain: CRD; also called Fc-tagged CRD2; CRD2; not shown: Fc tag of the bought protein

[3] = target: T2, FZD2^CRD-Fc (recombinant human, R&D …); assay: BLI (Blitz), FZD2CRD-Fc on anti-hIgG-Fc biosensor
[4] = target: T2, FZD2^CRD-Fc (recombinant human, R&D …)
[5] = target: T2, FZD2^CRD-Fc (recombinant human, R&D …); assay: BLI (Blitz), FZD2CRD-Fc on anti-hIgG-Fc biosensor; kon error printed 1.69 x 10^3
[6] = target: B3; assay: pull-down on Protein G beads and BLI, FZD5 CRD-Fc with or without PAM or Wnt3A
[7] = target: Recombinant full length TcdB (C. difficile strain VPI 10463), 6xHis-tagged (Clostridium difficile strain VPI 10463, UniProt P18177 1-2366); assay: BLI, FZD5 CRD-Fc with or without Wnt3A
[8] = target: B3; assay: BLI, CRD-Fc with or without Wnt3A
[9] = target: T2, FZD2^CRD-Fc (recombinant human, R&D …); assay: BLI, FZD2CRD-Fc (20 µg/ml) on anti-hIgG-Fc biosensor, then 20 µg/ml Wnt3A

Recombinant full length TcdB (C. difficile strain VPI 10463), 6xHis-tagged, sequence (P18177 whole entry): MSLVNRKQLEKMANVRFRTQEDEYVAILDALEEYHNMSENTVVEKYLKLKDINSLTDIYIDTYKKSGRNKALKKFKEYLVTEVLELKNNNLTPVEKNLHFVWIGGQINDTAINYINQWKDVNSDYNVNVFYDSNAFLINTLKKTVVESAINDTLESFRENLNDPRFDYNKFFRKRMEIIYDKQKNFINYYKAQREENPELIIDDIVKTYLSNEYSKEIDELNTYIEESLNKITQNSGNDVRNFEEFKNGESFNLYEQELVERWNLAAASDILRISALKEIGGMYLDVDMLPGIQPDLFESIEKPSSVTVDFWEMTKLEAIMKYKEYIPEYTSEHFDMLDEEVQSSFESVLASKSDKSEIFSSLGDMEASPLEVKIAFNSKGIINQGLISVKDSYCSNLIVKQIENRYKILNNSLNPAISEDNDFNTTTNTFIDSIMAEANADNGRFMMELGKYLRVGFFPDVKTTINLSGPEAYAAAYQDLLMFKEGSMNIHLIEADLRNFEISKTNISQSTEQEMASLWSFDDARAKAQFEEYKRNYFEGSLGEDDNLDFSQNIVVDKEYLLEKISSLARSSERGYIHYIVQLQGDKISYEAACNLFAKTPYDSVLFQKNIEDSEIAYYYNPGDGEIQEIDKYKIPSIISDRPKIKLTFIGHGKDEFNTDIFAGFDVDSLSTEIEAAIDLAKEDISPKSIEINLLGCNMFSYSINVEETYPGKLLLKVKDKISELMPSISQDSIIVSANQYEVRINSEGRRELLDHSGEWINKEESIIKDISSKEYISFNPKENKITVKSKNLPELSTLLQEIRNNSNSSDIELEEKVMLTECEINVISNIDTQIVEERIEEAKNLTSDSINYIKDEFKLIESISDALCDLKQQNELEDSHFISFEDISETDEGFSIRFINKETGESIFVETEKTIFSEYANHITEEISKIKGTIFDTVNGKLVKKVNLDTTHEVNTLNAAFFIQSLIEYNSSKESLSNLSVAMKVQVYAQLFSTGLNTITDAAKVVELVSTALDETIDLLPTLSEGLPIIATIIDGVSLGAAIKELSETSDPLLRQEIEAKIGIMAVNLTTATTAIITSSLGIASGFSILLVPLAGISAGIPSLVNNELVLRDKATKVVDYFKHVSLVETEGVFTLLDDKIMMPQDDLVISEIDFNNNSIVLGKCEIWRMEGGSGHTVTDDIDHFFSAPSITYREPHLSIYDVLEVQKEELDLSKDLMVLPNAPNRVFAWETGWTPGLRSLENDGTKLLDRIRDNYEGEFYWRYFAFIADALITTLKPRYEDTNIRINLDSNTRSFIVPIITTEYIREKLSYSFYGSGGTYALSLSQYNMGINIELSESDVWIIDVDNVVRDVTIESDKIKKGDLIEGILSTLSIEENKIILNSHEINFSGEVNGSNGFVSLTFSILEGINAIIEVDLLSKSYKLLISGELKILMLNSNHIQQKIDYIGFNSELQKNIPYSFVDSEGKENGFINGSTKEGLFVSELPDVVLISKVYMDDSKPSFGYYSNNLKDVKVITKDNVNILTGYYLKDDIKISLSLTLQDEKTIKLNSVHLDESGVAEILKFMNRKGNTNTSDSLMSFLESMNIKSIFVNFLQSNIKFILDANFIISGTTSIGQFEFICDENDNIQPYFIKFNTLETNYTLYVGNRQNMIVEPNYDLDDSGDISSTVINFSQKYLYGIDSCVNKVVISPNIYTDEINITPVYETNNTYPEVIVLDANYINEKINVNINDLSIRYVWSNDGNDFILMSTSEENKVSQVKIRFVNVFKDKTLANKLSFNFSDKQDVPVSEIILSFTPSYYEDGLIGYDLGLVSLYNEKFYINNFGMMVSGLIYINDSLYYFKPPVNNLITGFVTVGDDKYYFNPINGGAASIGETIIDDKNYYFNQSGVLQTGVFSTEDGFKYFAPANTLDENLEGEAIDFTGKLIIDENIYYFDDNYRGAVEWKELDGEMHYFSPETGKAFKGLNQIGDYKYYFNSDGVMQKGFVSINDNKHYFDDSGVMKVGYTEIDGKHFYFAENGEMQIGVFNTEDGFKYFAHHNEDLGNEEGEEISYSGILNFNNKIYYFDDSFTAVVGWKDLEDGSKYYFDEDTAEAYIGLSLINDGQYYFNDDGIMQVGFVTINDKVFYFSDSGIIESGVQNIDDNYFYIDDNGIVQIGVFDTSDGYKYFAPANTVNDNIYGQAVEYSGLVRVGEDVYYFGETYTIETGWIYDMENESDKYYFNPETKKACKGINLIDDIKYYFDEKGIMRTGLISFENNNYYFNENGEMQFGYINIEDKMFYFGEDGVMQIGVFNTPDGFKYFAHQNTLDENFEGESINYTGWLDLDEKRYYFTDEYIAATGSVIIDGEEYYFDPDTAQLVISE

## B1
[1]
  binding result: no binding

## B2
[1]
  binding result: no binding

## B3
[2]
  Kd: ~13 nM
[3]
  Kd: 13 nM
[4]
  koff: 0.0015 s⁻¹
[5]
  kon: 114000 M⁻¹ s⁻¹

## B4
[1]
  binding result: no binding

## B5
[1]
  binding result: no binding

## B6
[6]
  binding result: binds
[7]
  binding result: binds

## B7
[1]
  binding result: no binding

## B8
[8]
  binding result: binds

## B9
[8]
  binding result: binds

## B10
[9]
  binding result: binds

## B11
[1]
  binding result: no binding
